Measurements as given in patent publication CN105695419A.

Target: His标签蛋白
Experiment: ELISA titre of mouse ascites

B1: 杂交瘤细胞株4C9(CCTCC NO. C2015198)分泌的抗His标签蛋白单克隆抗体 (antibody, V domains shown)
VH: EVQLQESGAELMKPGASVKLSCKATGYTFTGYWIEWVKQRPGHGLEWIGEILPGSGSINHNENFKDKATFTADTSSNTAYMQLNSLTTEDSAVYFCAGGGGYWGQGTTLTVSS
VL: EIVITQTPLSLPVSLGDQASISCRSSRSIVHSNGNTYLEWYLQKPGQSPKLLIYKVSNRVSGVPDRFSGSGSGTDFTLKISRVEAEDLGVYYCFQGSHVPLTFGAGTKLELKR
Binder B1 has an ELISA效价 of 1.28e+06.
